# Values joined by “and” are separate entries in the source; they are usually repeats but may differ in a detail not shown here. Equal entries are not always repeated.
# B1: NF2 (merlin) isoform 7, human, full length (507 aa, lacks exons 2-3 = isoform-1 residues 39-121; exon-16 C-terminus), P35240-4 (parent)
# chain: MAGAIASRMSFSSLKRKQPKTFTVRIVTMDAEMEFNCEVKKQILDEKIYCPPEASVLLASYAVQAKYGDYDPSVHKRGFLAQEELLPKRVINLYQMTPEMWEERITAWYAEHRGRARDEAEMEYLKIAQDLEMYGVNYFAIRNKKGTELLLGVDALGLHIYDPENRLTPKISFPWNEIRNISYSDKEFTIKPLDKKIDVFKFNSSKLRVNKLILQLCIGNHDLFMRRRKADSLEVQQMKAQAREEKARKQMERQRLAREKQMREEAERTRDELERRLLQMKEEATMANEALMRSEETADLLAEKAQITEEEAKLLAQKAAEAEQEMQRIKATAIRTEEEKRLMEQKVLEAEVLALKMAEESERRAKEADQLKQDLQEAREAERRAKQKLLEIATKPTYPPMNPIPAPLPPDIPSFNLIGDSLSFDFKDTDMKRLSMEIEKEKVEYMEKSKHLQEQLNELKTEIEALKLKERETALDILHNENSDRGGSSKHNTIKKPQAQGRRPICI
# Variants of: B1
# Test: reverse yeast two-hybrid deep mutational scan (rY2H-seq): NF2 isoform 7 mutant library as bait mated with wild-type prey strains; selection on medium lacking adenine for non-interacting pairs; NextSeq paired-end sequencing; enrichment vs …
# Settings: yeast diploids after mating (RBait_S3 x RPrey_S3), 30 °C, selection for reporter genes on NB agar, HIGHER = WEAKER BINDING (the opposite of display enrichments): higher = stronger loss of interaction: reverse Y2H selects yeast in which bait and prey do NOT interact (growth without adenine), so a …, hits-only table, scale: rY2H score, numbering: uniprot, sequence starts at 1
# [1] = with EMILIN1 (elastin microfibril interfacer 1), Q9Y6C2, human ABL2 co-expressed as the kinase-dead K35M mutant …
# [2] = with KDM1A (lysine-specific histone demethylase 1A; the table's label AOF2 is a gene synonym of KDM1A), O60341, human ABL2 co-expressed as the kinase-dead K35M mutant …
# [3] = with EMILIN1 (elastin microfibril interfacer 1), Q9Y6C2, human tyrosine kinase ABL2 co-expressed as the active kinase …
# [4] = with KDM1A (lysine-specific histone demethylase 1A; the table's label AOF2 is a gene synonym of KDM1A), O60341, human tyrosine kinase ABL2 co-expressed as the active kinase …
# [5] = with NF2 C-terminal domain (wild type; homomeric NF2-NF2 interaction), P35240, human ABL2 co-expressed as the kinase-dead K35M mutant …, partner unresolved
# [6] = with PIK3R3 (phosphatidylinositol 3-kinase regulatory subunit gamma), Q92569, human tyrosine kinase ABL2 co-expressed as the active kinase …
Variant,enrichment [1],enrichment [2],enrichment [3],enrichment [4],enrichment [5],enrichment [6]
I418L,6.81,6.54,,,,
A378K,5.56,,,,4.21,
E325L,2.13,5.66,,,3.02,
E338R,2.37,,,,,
D476K,6.16,,4.37,,,5.97
S60L,2.18,2.95,,,,
L57E,1.73,,,,,
P410L,3.26 and 3.02,5.35 and 7.09,5.11 and 2.8,6.37 and 2.41,2.14 and 2.85,2.56
V347E,2.33 and 1.87,3.23,,,2.41,
E259V,2.5,2.8,1.65,2.08,2.03,4.06 and 2.02
K170R,2.58,,,3.72,,2.74
E359K,1.99,7.74,1.99,,,
M292S,1.52,1.74,,,1.49,1.46
R335A,35.1,67.9 and 31.8,43.3,,,
G78A,3.44,,,,,
D484L,2.38,,,4.48,,
E267A,2.15,,,,,
L158E,4.99,,4.25 and 2.98,,,
K366A,3.27,,,,,
K340E,2.44 and 2.85,1.93 and 2.13,4.17 and 3.5,1.71 and 2.96,2.5 and 3.18,5

Variant,enrichment [1],enrichment [2],enrichment [3],enrichment [4],enrichment [5],enrichment [6]
K340A,2.47,3.4 and 3.43,2.67,3.04 and 2.28,,1.46
Y398E,8.39,,15.7,,3.87 and 6.52,
Y398A,1.36,,,3.19,,
Y398F,1.39 and 2,1.87,1.38 and 1.78,2.06,,
T285L,,,2.39 and 4,,,6.05
A333T,2.19,,,,,
A333L,2.47,1.58,,1.46,,
V56C,2.08,7.69 and 9.8,3.78 and 9.66,6.5,3.78,11.6 and 11.3
R208C,2.09,,,,,
T473L,4.41,8.75,,,3.74 and 2.38,4.41
A406I,8.86,6.43,3.97,,,5.49
Q261L,4.37,,,,,
R379A,2.05,2,2.9,,,
E164A,2.89 and 5.48,5.57,2.44,,1.48,6.96
I507R,1.52,,,,2.16,
T147E,4.29,,,,,
R263L,3.17,,,,,
R263T,1.89,,,,,
Q82A,4.41,9.08,,4.66,2.07,
V74L,3.98,,,,,

Variant,enrichment [1],enrichment [2],enrichment [3],enrichment [4],enrichment [5],enrichment [6]
L417K,1.65,,,2.29,,1.72
D430L,1.61,3.75,,,,
D430K,3.35,,,,,
P409A,2.09,4.62,3.21 and 3.14,3.57 and 4.04,,
A312G,1.62,,,,,
I334K,1.69,2.46,,3.87,,2.88
H479E,3.67,,,,,
T168L,2.75,7.24,6.59 and 12.1,,,
Q317E,1.79,,,,4.2,
E296L,2.9,,,,,
R383L,3.93 and 2.71,,,,,
L342K,1.65 and 3.1,6.76 and 4.54,2.14 and 6.11,1.63,,
L342A,2.66,2.28,3.99,,,
A368K,3.84 and 3.98,10.5 and 10.2,,,5.98,
E337T,5.26,,,,,
D299A,1.54,,,,,
G419V,2.41,,,,,
G419A,1.71,,,1.44,,
T297A,2.57,,,2.94,,

# Other lines, results leading:
enrichment [1],enrichment [2],enrichment [3],enrichment [4],enrichment [5],enrichment [6],Variant
1.67,1.67,,,,,I418K
,,1.53,,,,R471G
8.81,,3.88,,,,R471E
2.5,,5.2 and 4.57,5.63,1.39 and 4.04,4.37,A319E
3.24,7.16,1.77,,,,A319K
2.2,3.51 and 3.33,,3.91,,1.62,R115C
2.21,,2.34,5.64,2.98,,P497L
,,1.61,,1.76,,L355E
17.4 and 9.29,38.4,19.6,,4.23,,E259T
6.8,,,,,,M292A
3.61,,,,,,A316S
2.8 and 1.9,4.14 and 1.58,1.83,,,,K330E
2.6 and 2.58,4.61 and 1.64,3.27,5.02,,,A331L
5.91,,,,,,K490E
6.85,,,,,,K281A
1.55,,,,,,G219E
1.75,4.26 and 3.03,5.66,,,,A333K
3.28,,,,2.97,,A322E
5.41,13.8,,,9,9.86,T394L
7.48 and 4.82,11.8,14.3,14,,,A406S

enrichment [1],enrichment [2],enrichment [3],enrichment [4],enrichment [5],enrichment [6],Variant
2.4,2.94,1.59,,,,C217Y
3.04,,6.55,2.39,2.55 and 4.04,3.17,L375E
5.44,,5.18,,4.73 and 3.13,,L300E
2.27,,,,,2.53,E164K
2.14,,,,,,P400A
1.99,,,,,,L291P
2.05,,2.49,,,,L371K
2.3,2.58,,,,1.98,V74C
,,2,,,3.5 and 2.86,S73K
1.75,2.69 and 1.45,1.68 and 2.52,,,,I334T
3.78 and 3.75,4.82 and 6.06,7.86 and 3.66,4.42 and 5.11,,7.41,R113C
2.72 and 2.96,3.54 and 3.02,3.96 and 3.74,2.75,,,E349T
3.54,4.09,,7.07,,,R25L
2.53,,,,,,D69A
3.3 and 9.12,4.91,3.94,,1.9,,L342E
2.2,,2.24,1.53,,1.5,N137L
2.71,2.29,4.3 and 3.24,,,,E337K
,,1.89,,,,E337A
5.53,6.44 and 7.44,10.6,,1.43,,R253K
